Experimental data: patent EP1722229B1

Key:
protein C (PC) [1] = molecular target: protein C (PC) (UniProt P04070); assay: cell-based or functional assay
protein C (PC) [2] = molecular target: protein C (PC) (UniProt P04070); assay: derived from the shift of the Km of PC activation by thrombin on EA.hy926 endothelial cells with 2 µM rhsEPCR

Sequence of protein C (PC) (P04070 43-461): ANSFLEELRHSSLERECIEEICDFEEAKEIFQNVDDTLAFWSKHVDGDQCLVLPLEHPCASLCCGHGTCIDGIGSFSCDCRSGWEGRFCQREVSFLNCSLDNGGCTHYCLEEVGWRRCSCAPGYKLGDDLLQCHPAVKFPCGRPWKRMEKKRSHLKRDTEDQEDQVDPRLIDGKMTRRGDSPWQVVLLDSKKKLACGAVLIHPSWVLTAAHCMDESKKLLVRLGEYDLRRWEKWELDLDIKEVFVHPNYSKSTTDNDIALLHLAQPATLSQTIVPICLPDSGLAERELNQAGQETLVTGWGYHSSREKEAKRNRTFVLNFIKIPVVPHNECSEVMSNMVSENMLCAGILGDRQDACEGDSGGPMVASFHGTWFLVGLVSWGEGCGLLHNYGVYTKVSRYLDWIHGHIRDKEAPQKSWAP

Km of PC activation by thrombin on the surface of endothelial cells in the presence of rhsEPCR 2 µM (protein C (PC) [1]): 1 µM | Ki (protein C (PC) [2]): 0.07 µM
Substance: recombinant human soluble EPCR (rhsEPCR) (receptor)
